Experimental findings from PMC10469627, “Molecular basis of the glycosomal targeting of PEX11 and its mislocalization to mitochondrion in trypanosomes” (Frontiers in Cell and Developmental Biology, 2023) are described below.

T1: GST-HsPEX19 (human, UniProt P40855 1-299)
T1 construct: human PEX19, expressed from pGEX4T1-HsPEX19; also called GST-tagged recombinant human PEX19; recombinant human GST-PEX19; source: E. coli BL21 (DE3), purified (Glutathione Agarose 4B)
T1 sequence (looked up): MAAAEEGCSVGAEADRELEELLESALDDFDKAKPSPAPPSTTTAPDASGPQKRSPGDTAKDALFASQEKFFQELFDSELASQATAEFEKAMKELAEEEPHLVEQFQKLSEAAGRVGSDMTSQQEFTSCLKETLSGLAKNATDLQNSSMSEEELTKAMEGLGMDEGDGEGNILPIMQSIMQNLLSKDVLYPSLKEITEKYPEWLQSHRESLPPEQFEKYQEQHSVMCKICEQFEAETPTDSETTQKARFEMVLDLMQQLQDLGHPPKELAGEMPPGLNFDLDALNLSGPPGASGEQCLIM

B1: TbPEX11 array peptides of BS3 (aa 139-159) (peptide)
peptide: VLDVVALYGALQKRASDPATS
notes: PEX11 of Trypanosoma brucei, residues 139-159 (BS3); on the array this stretch stood as consecutive overlapping 15-mers (2 aa shift), each on its own spot; source: synthetic peptides, synthesized on a cellulose membrane
B2: TbPEX11 array peptides of BS1 (aa 13-35) (peptide)
peptide: QTDGRDKILKAFSGVFKALGSLD
notes: PEX11 of Trypanosoma brucei, residues 13-35 (BS1); on the array this stretch stood as consecutive overlapping 15-mers (2 aa shift), each on its own spot; source: synthetic peptides, synthesized on a cellulose membrane
B3: TbPEX11 array peptides of BS2 (aa 77-99) (peptide)
peptide: CRAKGKVNMKEVLKFLRVLCNFL
notes: PEX11 of Trypanosoma brucei, residues 77-99 (BS2); on the array this stretch stood as consecutive overlapping 15-mers (2 aa shift), each on its own spot; source: synthetic peptides, synthesized on a cellulose membrane

The target of this assay is T1, GST-HsPEX19. The experiment in a line: peptide or protein array; 15-mer peptides (2 aa shift) on a cellulose membrane; probed with 1 µM GST fusion or GST in TBS + 3% BSA + 0.05% Tween-20, 1 h at 4°C; detected with anti-GST antibody and chemiluminescence; at least three consecutive spots counted as a potential site. Particulars: both partners purified.
Take B1: the binding result is given as “binds”.

As to B2, the binding result is recorded as “binds”.

Take B3: the binding result is “binds”.
